Assay results reported in publication PMC4211651.
pKd: −log10 of the molar value.

Target: native porcine cardiac thin filaments (F-actin plus regulatory proteins, troponin, and tropomyosin) (porcine) (UniProt P42639)
Test: co-sedimentation

Substance	pKd
mouse cardiac myosin binding protein-C N-terminal domains C0C1 (domain or fragment)	5.66
human cardiac myosin binding protein-C N-terminal domains C0C1 (domain or fragment)	5.66
